# Data reported in patent publication US20240117018A1.
# Experiments:
# Experiment in all cases: cell-based or functional assay
# [1] = target: HIV-1 Env pseudovirus T278-50 (HIV-1)
# [2] = target: HIV-1 Env pseudovirus X2088_c9 (HIV-1)
# [3] = target: HIV-1 Env pseudovirus 6041.v3.c23 (HIV-1)
# [4] = target: HIV-1 Env pseudovirus T255-34 (HIV-1)
# [5] = target: HIV-1 Env pseudovirus BJOX015000.11.5 (HIV-1)
# [6] = target: HIV-1 Env pseudovirus X2131_C1_B5 (HIV-1)
# [7] = target: HIV-1 Env pseudovirus CNE5 (HIV-1)
# [8] = target: HIV-1 Env pseudovirus P0402_c2_11 (HIV-1)
# [9] = target: HIV-1 Env pseudovirus BJOX025000.01.1 (HIV-1)
# [10] = target: Env of HIV-1 pseudovirus T257-31 (HIV-1)
# [11] = target: Env of HIV-1 pseudovirus RHPA4259.7 (HIV-1)
# [12] = target: Env of HIV-1 pseudovirus CNE21 (HIV-1)
# [13] = target: Env of HIV-1 pseudovirus Ce0393_C3 (HIV-1)
# [14] = target: Env of HIV-1 pseudovirus PVO.4 (HIV-1)
# [15] = target: Env of HIV-1 pseudovirus ZM135M.PL10a (HIV-1)
# [16] = target: Env of HIV-1 pseudovirus TRO.11 (HIV-1)
# [17] = target: Env of HIV-1 pseudovirus QH0692.42 (HIV-1)
# [18] = target: Env of HIV-1 pseudovirus ZM53M.PB12 (HIV-1)
# [19] = target: Env of HIV-1 pseudovirus 9004SS_A3_4 (HIV-1)
# [20] = target: Env of HIV-1 pseudovirus WITO4160.33 (HIV-1)
# [21] = target: Env of HIV-1 pseudovirus ZM233M.PB6 (HIV-1)
# [22] = target: Env of HIV-1 pseudovirus 1006_11_C3_1601 (HIV-1)
# [23] = target: Env of HIV-1 pseudovirus CNE52 (HIV-1)
# [24] = target: Env of HIV-1 pseudovirus Ce0682_E4 (HIV-1)
# [25] = target: Env of HIV-1 pseudovirus ZM249M.PL1 (HIV-1)
# [26] = target: Env of HIV-1 pseudovirus Du172.17 (HIV-1)
substance,measurement,setting,value
3BNC117 (antibody),IC50 (Titer in TZM.bl cells),[1],> 15 µg/mL
same,IC80 (Titer in TZM.bl cells),[1],> 15 µg/mL
same,IC50 (Titer in TZM.bl cells),[2],> 50 µg/mL
same,IC80 (Titer in TZM.bl cells),[2],> 50 µg/mL
same,IC50 (Titer in TZM.bl cells),[3],0.01 µg/mL
same,IC80 (Titer in TZM.bl cells),[3],0.07 µg/mL
same,IC50 (Titer in TZM.bl cells),[4],0.02 µg/mL
same,IC80 (Titer in TZM.bl cells),[4],0.14 µg/mL
same,IC50 (Titer in TZM.bl cells),[5],0.05 µg/mL
same,IC80 (Titer in TZM.bl cells),[5],0.32 µg/mL
same,IC50 (Titer in TZM.bl cells),[6],0.43 µg/mL
same,IC80 (Titer in TZM.bl cells),[6],1.96 µg/mL
same,IC50 (Titer in TZM.bl cells),[7],0.28 µg/mL
same,IC80 (Titer in TZM.bl cells),[7],1.28 µg/mL
same,IC50 (Titer in TZM.bl cells),[8],0.06 µg/mL
same,IC80 (Titer in TZM.bl cells),[8],0.38 µg/mL
same,IC50 (Titer in TZM.bl cells),[9],0.05 µg/mL
same,IC80 (Titer in TZM.bl cells),[9],0.2 µg/mL
8ANC195 (antibody),IC50 (Titer in TZM.bl cells),[1],> 50 µg/mL
same,IC80 (Titer in TZM.bl cells),[1],> 50 µg/mL
same,IC50 (Titer in TZM.bl cells),[2],> 50 µg/mL
same,IC80 (Titer in TZM.bl cells),[2],> 50 µg/mL
same,IC50 (Titer in TZM.bl cells),[3],> 50 µg/mL
same,IC80 (Titer in TZM.bl cells),[3],> 50 µg/mL
same,IC50 (Titer in TZM.bl cells),[4],0.54 µg/mL
same,IC80 (Titer in TZM.bl cells),[4],8.09 µg/mL
same,IC50 (Titer in TZM.bl cells),[5],0.97 µg/mL
same,IC80 (Titer in TZM.bl cells),[5],4.3 µg/mL
same,IC50 (Titer in TZM.bl cells),[6],3.47 µg/mL
same,IC80 (Titer in TZM.bl cells),[6],> 50 µg/mL
same,IC50 (Titer in TZM.bl cells),[7],2.12 µg/mL
same,IC80 (Titer in TZM.bl cells),[7],9.67 µg/mL
same,IC50 (Titer in TZM.bl cells),[8],0.62 µg/mL
same,IC80 (Titer in TZM.bl cells),[8],6.35 µg/mL
same,IC50 (Titer in TZM.bl cells),[9],4.96 µg/mL
same,IC80 (Titer in TZM.bl cells),[9],> 50 µg/mL
10-1074 (antibody),IC50,[10],> 50 µg/mL
same,IC80,[10],> 50 µg/mL
same,IC50,[11],0.021 µg/mL
same,IC80,[11],0.118 µg/mL
same,IC50,[12],0.067 µg/mL
same,IC80,[12],0.181 µg/mL
same,IC50,[13],> 50 µg/mL
same,IC80,[13],> 50 µg/mL
same,IC50,[14],0.074 µg/mL
same,IC80,[14],0.36 µg/mL
same,IC50,[15],0.069 µg/mL
same,IC80,[15],0.367 µg/mL
same,IC50,[16],0.008 µg/mL
same,IC80,[16],0.057 µg/mL
same,IC50,[17],0.191 µg/mL
same,IC80,[17],0.929 µg/mL
same,IC50,[18],> 50 µg/mL
same,IC80,[18],> 50 µg/mL
same,IC50,[19],0.011 µg/mL
same,IC80,[19],0.03 µg/mL
same,IC50,[20],0.185 µg/mL
same,IC80,[20],2.11 µg/mL
same,IC50,[21],0.06 µg/mL
same,IC80,[21],0.349 µg/mL
same,IC50,[22],0.003 µg/mL
same,IC80,[22],0.013 µg/mL
same,IC50,[23],1.23 µg/mL
same,IC80,[23],13.1 µg/mL
same,IC50,[24],> 50 µg/mL
same,IC80,[24],> 50 µg/mL
same,IC50,[25],> 50 µg/mL
same,IC80,[25],> 50 µg/mL
same,IC50,[26],0.121 µg/mL
same,IC80,[26],0.43 µg/mL
10E8 (antibody),IC50,[10],0.88 µg/mL
same,IC80,[10],5.78 µg/mL
same,IC50,[11],0.728 µg/mL
same,IC80,[11],5.28 µg/mL
same,IC50,[12],1.9 µg/mL
same,IC80,[12],> 10 µg/mL
same,IC50,[13],1.18 µg/mL
same,IC80,[13],7.42 µg/mL
same,IC50,[14],0.747 µg/mL
same,IC80,[14],> 10 µg/mL
same,IC50,[15],0.171 µg/mL
same,IC80,[15],1.19 µg/mL
same,IC50,[16],0.034 µg/mL
same,IC80,[16],0.25 µg/mL
same,IC50,[17],0.442 µg/mL
same,IC80,[17],4.05 µg/mL
same,IC50,[18],3.98 µg/mL
same,IC80,[18],> 10 µg/mL
same,IC50,[19],1.16 µg/mL
same,IC80,[19],6.76 µg/mL
same,IC50,[20],0.094 µg/mL
same,IC80,[20],1.23 µg/mL
same,IC50,[21],0.442 µg/mL
same,IC80,[21],2.39 µg/mL
same,IC50,[22],0.172 µg/mL
same,IC80,[22],3 µg/mL
same,IC50,[23],0.304 µg/mL
same,IC80,[23],3.06 µg/mL
same,IC50,[24],1.22 µg/mL
same,IC80,[24],7.71 µg/mL
same,IC50,[25],1.51 µg/mL
same,IC80,[25],6.29 µg/mL
same,IC50,[26],0.109 µg/mL
same,IC80,[26],0.837 µg/mL
PG9 (antibody),IC50,[10],0.037 µg/mL
same,IC80,[10],0.124 µg/mL
same,IC50,[11],22.6 µg/mL
same,IC80,[11],> 50 µg/mL
same,IC50,[12],0.038 µg/mL
same,IC80,[12],0.094 µg/mL
same,IC50,[13],0.02 µg/mL
same,IC80,[13],0.055 µg/mL
same,IC50,[14],10.6 µg/mL
same,IC80,[14],> 50 µg/mL
same,IC50,[15],20.6 µg/mL
same,IC80,[15],> 50 µg/mL
same,IC50,[16],43.2 µg/mL
same,IC80,[16],> 50 µg/mL
same,IC50,[17],> 50 µg/mL
same,IC80,[17],> 50 µg/mL
same,IC50,[18],0.069 µg/mL
same,IC80,[18],0.221 µg/mL
same,IC50,[19],0.088 µg/mL
same,IC80,[19],0.251 µg/mL
same,IC50,[20],0.01 µg/mL
same,IC80,[20],0.037 µg/mL
same,IC50,[21],0.01 µg/mL
same,IC80,[21],0.026 µg/mL
same,IC50,[22],0.366 µg/mL
same,IC80,[22],1.91 µg/mL
same,IC50,[23],0.029 µg/mL
same,IC80,[23],0.081 µg/mL
same,IC50,[24],0.196 µg/mL
same,IC80,[24],0.698 µg/mL
same,IC50,[25],0.166 µg/mL
same,IC80,[25],1.41 µg/mL
same,IC50,[26],0.606 µg/mL
same,IC80,[26],1.6 µg/mL
PG16 (antibody),IC50,[10],0.007 µg/mL
same,IC80,[10],0.021 µg/mL
same,IC50,[11],0.375 µg/mL
same,IC80,[11],3.92 µg/mL
same,IC50,[12],0.007 µg/mL
same,IC80,[12],0.026 µg/mL
same,IC50,[13],0.002 µg/mL
same,IC80,[13],0.006 µg/mL
same,IC50,[14],15.3 µg/mL
same,IC80,[14],> 50 µg/mL
same,IC50,[15],> 50 µg/mL
same,IC80,[15],> 50 µg/mL
same,IC50,[16],1.92 µg/mL
same,IC80,[16],49.6 µg/mL
same,IC50,[17],> 50 µg/mL
same,IC80,[17],> 50 µg/mL
same,IC50,[18],0.007 µg/mL
same,IC80,[18],0.051 µg/mL
same,IC50,[19],0.02 µg/mL
same,IC80,[19],0.111 µg/mL
same,IC50,[20],0.002 µg/mL
same,IC80,[20],0.012 µg/mL
same,IC50,[21],0.002 µg/mL
same,IC80,[21],0.006 µg/mL
same,IC50,[22],> 50 µg/mL
same,IC80,[22],> 50 µg/mL
same,IC50,[23],0.009 µg/mL
same,IC80,[23],0.026 µg/mL
same,IC50,[24],0.026 µg/mL
same,IC80,[24],0.202 µg/mL
same,IC50,[25],0.127 µg/mL
same,IC80,[25],18.1 µg/mL
same,IC50,[26],0.033 µg/mL
same,IC80,[26],0.213 µg/mL
VRC07 (antibody),IC50 (Titer in TZM.bl cells),[1],> 50 µg/mL
same,IC80 (Titer in TZM.bl cells),[1],> 50 µg/mL
same,IC50 (Titer in TZM.bl cells),[2],> 50 µg/mL
same,IC80 (Titer in TZM.bl cells),[2],> 50 µg/mL
same,IC50 (Titer in TZM.bl cells),[3],0.018 µg/mL
same,IC80 (Titer in TZM.bl cells),[3],0.058 µg/mL
same,IC50 (Titer in TZM.bl cells),[4],0.227 µg/mL
same,IC80 (Titer in TZM.bl cells),[4],0.987 µg/mL
same,IC50 (Titer in TZM.bl cells),[5],0.054 µg/mL
same,IC80 (Titer in TZM.bl cells),[5],0.479 µg/mL
same,IC50 (Titer in TZM.bl cells),[6],0.219 µg/mL
same,IC80 (Titer in TZM.bl cells),[6],1.03 µg/mL
same,IC50 (Titer in TZM.bl cells),[7],0.138 µg/mL
same,IC80 (Titer in TZM.bl cells),[7],0.524 µg/mL
same,IC50 (Titer in TZM.bl cells),[8],0.085 µg/mL
same,IC80 (Titer in TZM.bl cells),[8],0.422 µg/mL
same,IC50 (Titer in TZM.bl cells),[9],0.279 µg/mL
same,IC80 (Titer in TZM.bl cells),[9],2.29 µg/mL
